Reference: patent US20260217779A1 (Chugai, published 2026)
Positions count from the first letter of the chain named. In names and notes the source's numbering stands.

B1: hCXCL11.0008-G1T4k.one//VHn-G1T4h.one.H435R (Fc fusion)
chain 1: FHMFKRGRCLCIGPGVKAVKVADIEKASIMYPSNNCDKIEVIITLKENKGQRCLNPKSKQARLIIKKVERKNFEPKSSDKTHTCPPCPAPELRRGPSVFLFPPKPKDTLMISRTPEVTCVVVDVSHEDPEVKFNWYVDGVEVHNAKTKPREEQYNSTYRVVSVLTVLHQDWLNGKEYKCKVSNKGLPSSIEKTISKAKGQPREPQVCTLPPSREEMTKNQVSLWCLVKGFYPSDIAVEWESNGQPENNYKTTPPVLDSDGSFFLYSKLTVDKSRWQEGNVFSCSVMHEALHNHYTQKSLSLSP
chain 2: EPKSSDKTHTCPPCPAPELRRGPSVFLFPPKPKDTLMISRTPEVTCVVVDVSHEDPEVKFNWYVDGVEVHNAKTKPREEQYNSTYRVVSVLTVLHQDWLNGKEYKCKVSNKGLPSSIEKTISKAKGQPREPQVYTLPPSRCEMTKNQVSLSCAVKGFYPSDIAVEWESNGQPENNYKTTPPVLDSDGSFFLVSKLTVDKSRWQEGNVFSCSVMHEALHNRYTQKSLSLSP
B2: hCXCL11.0009-G1T4k.one//VHn-G1T4h.one.H435R (Fc fusion)
chain 1: B1 chain 1 with H2I
chain 2: B1 chain 2
B3: hCXCL11.0014-G1T4k.one//VHn-G1T4h.one.H435R (Fc fusion)
chain 1: B1 chain 1 with H2Q
chain 2: B1 chain 2
B4: hCXCL11.0013-G1T4k.one//VHn-G1T4h.one.H435R (Fc fusion)
chain 1: B1 chain 1 with H2N
chain 2: B1 chain 2
B5: hCXCL11.0024-G1T4k.one//VHn-G1T4h.one.H435R (Fc fusion)
chain 1: FFPMFKRGRCLCIGPGVKAVKVADIEKASIMYPSNNCDKIEVIITLKENKGQRCLNPKSKQARLIIKKVERKNFEPKSSDKTHTCPPCPAPELRRGPSVFLFPPKPKDTLMISRTPEVTCVVVDVSHEDPEVKFNWYVDGVEVHNAKTKPREEQYNSTYRVVSVLTVLHQDWLNGKEYKCKVSNKGLPSSIEKTISKAKGQPREPQVCTLPPSREEMTKNQVSLWCLVKGFYPSDIAVEWESNGQPENNYKTTPPVLDSDGSFFLYSKLTVDKSRWQEGNVFSCSVMHEALHNHYTQKSLSLSP
chain 2: B1 chain 2
B6: hCXCL11.0017-G1T4k.one//VHn-G1T4h.one.H435R (Fc fusion)
chain 1: B1 chain 1 with H2T
chain 2: B1 chain 2
B7: hCXCL11.0016-G1T4k.one//VHn-G1T4h.one.H435R (Fc fusion)
chain 1: B1 chain 1 with H2S
chain 2: B1 chain 2
B8: hCXCL11.0011-G1T4k.one//VHn-G1T4h.one.H435R (Fc fusion)
chain 1: B1 chain 1 with H2L
chain 2: B1 chain 2
B9: hCXCL11.0026-G1T4k.one//VHn-G1T4h.one.H435R (Fc fusion)
chain 1: B5 chain 1 with F1H
chain 2: B1 chain 2
B10: hCXCL11.0010-G1T4k.one//VHn-G1T4h.one.H435R (Fc fusion)
chain 1: B1 chain 1 with H2K
chain 2: B1 chain 2
B11: hCXCL11.0020-G1T4k.one//VHn-G1T4h.one.H435R (Fc fusion)
chain 1: B1 chain 1 with H2Y
chain 2: B1 chain 2
B12: hCXCL11.0018-G1T4k.one//VHn-G1T4h.one.H435R (Fc fusion)
chain 1: B1 chain 1 with H2V
chain 2: B1 chain 2
B13: hCXCL11.0012-G1T4k.one//VHn-G1T4h.one.H435R (Fc fusion)
chain 1: B1 chain 1 with H2M
chain 2: B1 chain 2
B14: hCXCL11.0021-G1T4k.one//VHn-G1T4h.one.H435R (Fc fusion)
chain 1: B5 chain 1 with F1A
chain 2: B1 chain 2
B15: hCXCL11.0023-G1T4k.one//VHn-G1T4h.one.H435R (Fc fusion)
chain 1: B5 chain 1 with F1E
chain 2: B1 chain 2
B16: hCXCL11.0022-G1T4k.one//VHn-G1T4h.one.H435R (Fc fusion)
chain 1: B5 chain 1 with F1D
chain 2: B1 chain 2
B17: hCXCL11.0015-G1T4k.one//VHn-G1T4h.one.H435R (Fc fusion)
chain 1: B1 chain 1 with H2R
chain 2: B1 chain 2
B18: hCXCL11.0019-G1T4k.one//VHn-G1T4h.one.H435R (Fc fusion)
chain 1: B1 chain 1 with H2W
chain 2: B1 chain 2

These binders were tested against T1, human CXCR3 (hCXCR3) on Ba/F3 transfectant cells (human, UniProt P49682 1-368) (assay: cell-based or functional assay).
T1 sequence: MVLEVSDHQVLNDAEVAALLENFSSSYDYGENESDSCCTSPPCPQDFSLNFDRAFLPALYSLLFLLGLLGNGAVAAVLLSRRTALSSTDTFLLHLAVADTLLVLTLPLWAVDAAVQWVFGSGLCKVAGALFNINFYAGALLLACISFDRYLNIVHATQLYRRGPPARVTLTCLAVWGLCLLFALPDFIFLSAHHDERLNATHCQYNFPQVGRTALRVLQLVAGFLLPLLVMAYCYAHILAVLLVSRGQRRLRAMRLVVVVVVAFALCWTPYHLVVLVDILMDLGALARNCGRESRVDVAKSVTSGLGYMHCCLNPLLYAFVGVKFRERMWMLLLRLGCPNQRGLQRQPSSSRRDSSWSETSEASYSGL

Q: With B1 as the binder, how does the “Activity retention rate at 33 nM” value read?
A: 44%

Q: What about the “Activity retention rate at 100 nM” value of the same binder?
A: 73%

Q: And the “Activity retention rate at 300 nM” value?
A: 108%

Q: What about the “Luminescence value at 33 nM” value of the same binder?
A: 3.4e+06

Q: And the “Luminescence value at 100 nM” value?
A: 1.22e+07

Q: And the “Luminescence value at 300 nM” value?
A: 1.34e+07

Q: How did the “Activity retention rate at 33 nM” value turn out when B2 was run?
A: 13%

Q: What about the “Activity retention rate at 100 nM” value of the same binder?
A: 41%

Q: What about the “Activity retention rate at 300 nM” value of the same binder?
A: 109%

Q: And the “Luminescence value at 33 nM” value?
A: 966000

Q: And the “Luminescence value at 100 nM” value?
A: 6.79e+06

Q: And the “Luminescence value at 300 nM” value?
A: 1.35e+07

Q: What does the source list for B3?
A: Activity retention rate at 33 nM: 105%; Activity retention rate at 100 nM: 89%; Activity retention rate at 300 nM: 60%; Luminescence value at 33 nM: 8.07e+06; Luminescence value at 100 nM: 1.48e+07; Luminescence value at 300 nM: 7.51e+06

Q: B4 was tested. Which “Activity retention rate at 33 nM” value did it give?
A: 71%

Q: What about the “Activity retention rate at 100 nM” value of the same binder?
A: 78%

Q: What about the “Activity retention rate at 300 nM” value of the same binder?
A: 81%

Q: What about the “Luminescence value at 33 nM” value of the same binder?
A: 5.49e+06

Q: What about the “Luminescence value at 100 nM” value of the same binder?
A: 1.31e+07

Q: And the “Luminescence value at 300 nM” value?
A: 1.01e+07

Q: For B5, which “Activity retention rate at 33 nM” value is on record?
A: 32%

Q: And the “Activity retention rate at 100 nM” value?
A: 72%

Q: And the “Activity retention rate at 300 nM” value?
A: 105%

Q: And the “Luminescence value at 33 nM” value?
A: 2.47e+06

Q: And the “Luminescence value at 100 nM” value?
A: 1.2e+07

Q: And the “Luminescence value at 300 nM” value?
A: 1.31e+07

Q: Which results are given for B6?
A: Activity retention rate at 33 nM: 61%; Activity retention rate at 100 nM: 74%; Activity retention rate at 300 nM: 69%; Luminescence value at 33 nM: 4.72e+06; Luminescence value at 100 nM: 1.24e+07; Luminescence value at 300 nM: 8.54e+06

Q: How did the “Activity retention rate at 33 nM” value turn out when B7 was run?
A: 65%

Q: And the “Activity retention rate at 100 nM” value?
A: 75%

Q: What about the “Activity retention rate at 300 nM” value of the same binder?
A: 69%

Q: And the “Luminescence value at 33 nM” value?
A: 4.95e+06

Q: And the “Luminescence value at 100 nM” value?
A: 1.25e+07

Q: And the “Luminescence value at 300 nM” value?
A: 8.57e+06

Q: For B8, which “Activity retention rate at 33 nM” value is on record?
A: 3%

Q: And the “Activity retention rate at 100 nM” value?
A: 24%

Q: What about the “Activity retention rate at 300 nM” value of the same binder?
A: 77%

Q: And the “Luminescence value at 33 nM” value?
A: 262000

Q: And the “Luminescence value at 100 nM” value?
A: 4.02e+06

Q: And the “Luminescence value at 300 nM” value?
A: 9.6e+06

Q: Which “Activity retention rate at 33 nM” value does the source give for B9 here?
A: 71%

Q: What about the “Activity retention rate at 100 nM” value of the same binder?
A: 77%

Q: And the “Activity retention rate at 300 nM” value?
A: 80%

Q: And the “Luminescence value at 33 nM” value?
A: 5.46e+06

Q: And the “Luminescence value at 100 nM” value?
A: 1.29e+07

Q: And the “Luminescence value at 300 nM” value?
A: 9.92e+06

Q: With B10 as the binder, how does the “Activity retention rate at 33 nM” value read?
A: 7%

Q: What about the “Activity retention rate at 100 nM” value of the same binder?
A: 30%

Q: What about the “Activity retention rate at 300 nM” value of the same binder?
A: 63%

Q: And the “Luminescence value at 33 nM” value?
A: 524000

Q: And the “Luminescence value at 100 nM” value?
A: 4.93e+06

Q: What about the “Luminescence value at 300 nM” value of the same binder?
A: 7.78e+06

Q: With B11 as the binder, how does the “Activity retention rate at 33 nM” value read?
A: 28%

Q: What about the “Activity retention rate at 100 nM” value of the same binder?
A: 62%

Q: And the “Activity retention rate at 300 nM” value?
A: 95%

Q: And the “Luminescence value at 33 nM” value?
A: 2.15e+06

Q: What about the “Luminescence value at 100 nM” value of the same binder?
A: 1.03e+07

Q: And the “Luminescence value at 300 nM” value?
A: 1.18e+07

Q: For B12, which “Activity retention rate at 33 nM” value is on record?
A: 24%

Q: What about the “Activity retention rate at 100 nM” value of the same binder?
A: 50%

Q: What about the “Activity retention rate at 300 nM” value of the same binder?
A: 81%

Q: And the “Luminescence value at 33 nM” value?
A: 1.85e+06

Q: And the “Luminescence value at 100 nM” value?
A: 8.32e+06

Q: And the “Luminescence value at 300 nM” value?
A: 1.01e+07

Q: What does the source list for B13?
A: Activity retention rate at 33 nM: 17%; Activity retention rate at 100 nM: 46%; Activity retention rate at 300 nM: 95%; Luminescence value at 33 nM: 1.33e+06; Luminescence value at 100 nM: 7.6e+06; Luminescence value at 300 nM: 1.18e+07

Q: Which results are given for B14?
A: Activity retention rate at 33 nM: 108%; Activity retention rate at 100 nM: 93%; Activity retention rate at 300 nM: 84%; Luminescence value at 33 nM: 8.26e+06; Luminescence value at 100 nM: 1.56e+07; Luminescence value at 300 nM: 1.04e+07

Q: What does the source list for B15?
A: Activity retention rate at 33 nM: 189%; Activity retention rate at 100 nM: 98%; Activity retention rate at 300 nM: 48%; Luminescence value at 33 nM: 1.45e+07; Luminescence value at 100 nM: 1.64e+07; Luminescence value at 300 nM: 5.98e+06

Q: How did the “Activity retention rate at 33 nM” value turn out when B16 was run?
A: 178%

Q: What about the “Activity retention rate at 100 nM” value of the same binder?
A: 89%

Q: And the “Activity retention rate at 300 nM” value?
A: 49%

Q: What about the “Luminescence value at 33 nM” value of the same binder?
A: 1.37e+07

Q: And the “Luminescence value at 100 nM” value?
A: 1.48e+07

Q: And the “Luminescence value at 300 nM” value?
A: 6.06e+06

Q: How did the “Activity retention rate at 33 nM” value turn out when B17 was run?
A: 34%

Q: What about the “Activity retention rate at 100 nM” value of the same binder?
A: 73%

Q: What about the “Activity retention rate at 300 nM” value of the same binder?
A: 98%

Q: What about the “Luminescence value at 33 nM” value of the same binder?
A: 2.62e+06

Q: And the “Luminescence value at 100 nM” value?
A: 1.23e+07

Q: What about the “Luminescence value at 300 nM” value of the same binder?
A: 1.22e+07

Q: Which results are given for B18?
A: Activity retention rate at 33 nM: 4%; Activity retention rate at 100 nM: 28%; Activity retention rate at 300 nM: 93%; Luminescence value at 33 nM: 325000; Luminescence value at 100 nM: 4.66e+06; Luminescence value at 300 nM: 1.15e+07
